Laboratory results from IntAct's records for PubMed 15841490.

B1: SH2 domain-containing protein 1A (Homo sapiens), O60880-1 (parent)
chain: MDAVAVYHGKISRETGEKLLLATGLDGSYLLRDSESVPGVYCLCVLYHGYIYTYRVSQTETGSWSAETAPGVHKRYFRKIKNLISAFQKPDQGIVIPLQYPVEKKSSARSTQGTTGIREDPDVCLKAP
partner: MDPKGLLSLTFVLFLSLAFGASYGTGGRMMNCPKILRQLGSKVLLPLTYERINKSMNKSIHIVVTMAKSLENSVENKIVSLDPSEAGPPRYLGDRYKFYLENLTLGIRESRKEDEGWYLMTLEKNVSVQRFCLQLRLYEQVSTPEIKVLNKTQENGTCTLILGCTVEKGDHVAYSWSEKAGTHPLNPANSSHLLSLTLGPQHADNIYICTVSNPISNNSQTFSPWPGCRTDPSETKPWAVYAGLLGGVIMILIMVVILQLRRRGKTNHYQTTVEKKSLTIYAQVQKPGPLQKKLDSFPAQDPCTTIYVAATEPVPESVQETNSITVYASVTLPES

Variants of: B1
Settings: with slaf1_human SLAMF1, Q13291

Variant	effect of a mutation on the interaction
G16D	disrupting interaction strength
